Test results: patent US20180094062A1 (Hoffmann-La Roche, published 2018)

B1: Europium-labeled Heregulin-beta (PeproTech, Cat. #100-03) (ligand)
chain: SHLVKCAEKEKTFCVNGGECFMVKDLSNPSRYLCKCPNEFTGDRCQNYVMASFYKHLGIEFMEAE
modifications: also: europium label, position not given here
notes: bought fragment; also called HRG; Human Heregulin β-1 fragment (as provided from Preprotech)
B2: anti-HER3 antibody M-17-07 (antibody, V domains shown)
VH: EVQLQQSGTVLARPGASVKMSCKASGYSFTSYWIHWVKQRPGQGLEWIGAIYPGNSDTTYNQKFKGKAKLTAVTSASTAYMELSSLTNEDSAVYYCARTGVWTSYYFDYWGQGTTLTVSS
VL: DIQMTQSPASLSASVGETVTITCRASENIYSNLAWYQQKQGKSPQLLVYAATNLADGVPSRFSGSGSGTQFSLRINSLQPEDFGSYYCQHFYGTPFTFGTGTKLEIK
notes: mouse hybridoma clone
B3: anti-HER3 antibody M-17-12 (antibody, V domains shown)
VH: B2 VH
VL: B2 VL
notes: mouse hybridoma clone; VH and VL stated identical to those of M-17-02
B4: anti-HER3 antibody MOR09823 (described in WO2012/22814) (antibody, V domains shown)
VH: QVQLVESGGGLVQPGGSLRLSCAASGFTFSSYAMSWVRQAPGKGLEWVSVTGAVGRTYYPDSVKGRFTISRDNSKNTLYLQMNSLRAEDTAVYYCARWGDEGFDIWGQGTLVTVSS
VL: DIQMTQSPSSLSASVGDRVTITCRASQGISNWLAWYQQKPGKAPKLLIYGASSLQSGVPSRFSGSGSGTDFTLTISSLQPEDFAVYYCQQYSSFPTTFGQGTKVEIKR
B5: anti-HER3/HER4 antibody M-05-74 (antibody, V domains shown)
VH: QVQLQQSGAELAKPGASVKMSCKTSGYTLTDYWIHWVKQRPGQGLEWIGYINPYTGYTESNQKFKDKATLTADKSSNTAYIQLSSLTSEDSAVYYCARPYYYGDYWGQGTTLTVSS
VL: QIVLTQSPAIMSASPGERVTITCSASSSVSYMHWFQQKPGTSPKLLIYSTSNLASGVPARFSGSGSGTSYSLTISRMEAEDAATYYCQQRSSYPFTFGSGTKLEIK
notes: also called M-074; M-5-74

Assays:
[1] = biological target: T1, SBP-tagged HER3-ECD (human, UniProt P21860 20-643); assay: time-resolved fluorescence, 10 nM Eu-labelled Heregulin-beta on plate-bound SBP-tagged HER3-ECD
T1 construct: not shown: SBP tag
Experimental: On the next day the wells were washed three times with washing buffer (PBS+0.05% Tween-20) and blocked with PBS containing 1% BSA for one hour. After another three washes with washing buffer, 40 μl antibody solution (in Delfia Binding Buffer) was added to each well as a 2× stock of the desired final concentrations (10⁻³ to 10³ nM, alternatively 10⁻⁴ to 10² nM). Immediately […] of 20 nM Europium-labeled Heregulin-beta (PeproTech, Cat. #100-03) was added to achieve a final concentration of 10 nM. The plates were incubated on a shaker at room temperature for two hours. Following three washes with Delfia Wash Buffer, Delfia Enhancement Solution was added and incubated on a shaker for 15 minutes (light protected). Finally, the plates were measured in a Tecan Infinite F200 reader using a time-resolved fluorescence measurement protocol.

[2] = biological target: T2, human recombinant HER3 Extracellular Domain (HER3 ECD) (human, UniProt P21860 20-643); assay: ELISA, antigen coated, hybridoma supernatant
T2 construct: 68 kDa; also called human-Her3-ECD
Experimental: (§1) For the ELISA screening an antigen down format was used. […] Hybridoma Supernatant was added to the plates and incubated for 1 h at room temperature. Bound antibody was detected with a HRP-labeled F(ab′)₂ goat anti-mouse Fcγ (Dianova) and ABTS (Roche) was used as a HRP-substrate.
(§2) As negative controls the scaffold proteins TtSlyDcas and TgSlyDΔIF were used.

[3] = biological target: T3, human HER1 Extracellular Domain (HER1 ECD) (human, UniProt P00533 25-645); assay: ELISA, antigen coated, hybridoma supernatant
T3 construct: also called EGFR ECD
Experimental: as §1, §2

[4] = biological target: human HER2 Extracellular Domain (HER2 ECD) (human, UniProt P04626 23-652); assay: ELISA, antigen coated, hybridoma supernatant
Experimental: as §1, §2

[5] = biological target: T4, human recombinant HER4 Extracellular Domain (HER4 ECD) (human, UniProt Q15303 26-651); assay: ELISA, antigen coated, hybridoma supernatant
T4 sequence: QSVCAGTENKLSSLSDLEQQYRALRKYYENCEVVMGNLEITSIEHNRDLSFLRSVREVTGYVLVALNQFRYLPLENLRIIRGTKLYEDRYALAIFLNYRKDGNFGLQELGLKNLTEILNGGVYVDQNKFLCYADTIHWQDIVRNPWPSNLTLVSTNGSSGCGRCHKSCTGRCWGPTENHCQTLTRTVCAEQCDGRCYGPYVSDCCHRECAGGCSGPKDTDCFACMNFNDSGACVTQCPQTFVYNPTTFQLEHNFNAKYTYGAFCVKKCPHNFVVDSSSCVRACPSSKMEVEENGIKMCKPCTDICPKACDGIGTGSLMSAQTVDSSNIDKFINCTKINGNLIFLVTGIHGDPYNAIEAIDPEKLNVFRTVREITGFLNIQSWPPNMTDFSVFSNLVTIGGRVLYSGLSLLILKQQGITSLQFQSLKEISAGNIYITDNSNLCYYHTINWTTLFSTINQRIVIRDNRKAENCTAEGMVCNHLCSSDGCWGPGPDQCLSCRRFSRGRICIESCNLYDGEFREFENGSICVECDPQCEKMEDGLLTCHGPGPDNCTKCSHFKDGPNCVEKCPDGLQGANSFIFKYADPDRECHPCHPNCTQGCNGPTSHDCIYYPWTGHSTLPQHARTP
Experimental: as §1, §2

[6] = biological target: T5, TtSlyDcas; assay: ELISA, antigen coated, hybridoma supernatant
T5 construct: negative control scaffold without the HER3 β-hairpin
T5 chain: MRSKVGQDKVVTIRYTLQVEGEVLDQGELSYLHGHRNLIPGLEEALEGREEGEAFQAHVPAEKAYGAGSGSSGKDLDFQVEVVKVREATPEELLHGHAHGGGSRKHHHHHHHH
Experimental: as §1, §2

[7] = biological target: T6, TgSlyDΔIF; assay: ELISA, antigen coated, hybridoma supernatant
T6 construct: negative control scaffold without insert (Thermococcus gammatolerans SlyD); also called TgSlyDAIF
T6 chain: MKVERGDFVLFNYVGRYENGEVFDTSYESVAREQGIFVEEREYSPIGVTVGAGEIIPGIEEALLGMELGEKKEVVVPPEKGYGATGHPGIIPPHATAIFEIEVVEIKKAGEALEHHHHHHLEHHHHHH
Experimental: as §1, §2

[8] = biological target: T7, TtSlyDcas-Her3; assay: ELISA, antigen coated, hybridoma supernatant
T7 chain: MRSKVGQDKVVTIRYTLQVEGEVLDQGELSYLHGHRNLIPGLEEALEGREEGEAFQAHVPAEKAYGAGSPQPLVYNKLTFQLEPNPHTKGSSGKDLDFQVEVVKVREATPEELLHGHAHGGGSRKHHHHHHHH
Experimental: as §1, §2

[9] = biological target: T8, TtSlyDcys-Her3; assay: ELISA, antigen coated, hybridoma supernatant
T8 chain: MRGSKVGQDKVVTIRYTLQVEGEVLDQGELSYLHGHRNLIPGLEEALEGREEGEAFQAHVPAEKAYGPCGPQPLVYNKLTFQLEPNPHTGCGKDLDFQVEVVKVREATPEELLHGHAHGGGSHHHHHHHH
Experimental: as §1, §2

[10] = biological target: T9, TgSlyDser-Her3; assay: ELISA, antigen coated, hybridoma supernatant
T9 chain: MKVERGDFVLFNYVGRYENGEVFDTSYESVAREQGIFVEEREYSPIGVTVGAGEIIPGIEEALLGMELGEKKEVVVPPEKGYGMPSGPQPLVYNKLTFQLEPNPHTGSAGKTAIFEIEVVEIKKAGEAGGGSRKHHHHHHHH
Experimental: as §1, §2

[11] = biological target: T10, TgSlyDcys-Her3; assay: ELISA, antigen coated, hybridoma supernatant
T10 chain: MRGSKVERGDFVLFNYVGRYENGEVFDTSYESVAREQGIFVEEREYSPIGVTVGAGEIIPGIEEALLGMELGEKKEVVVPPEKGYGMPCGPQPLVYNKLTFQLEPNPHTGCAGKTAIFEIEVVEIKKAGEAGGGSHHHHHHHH
Experimental: as §1, §2

[12] = biological target: T11, HER1, full length, on transfected HEK293 cells (human, UniProt P00533 25-1210); assay: IHC on HEK293 cells transiently transfected with full length HER1
T11 construct: HEK293 transiently transfected with a plasmid coding for full length HER1; also called EGFR
Experimental: (§3) All selected clones were tested for reactivity and specificity in IHC. […] After an additional fixation in formalin overnight the Agarose blocks were embedded in paraffin. Untransfected HEK293 cells were used as negative controls and treated accordingly to the transfected cells. After paraffin embedding 3 μm thin sections were prepared using a microtome. The sections were mounted on glass microscopy slides and dried for 2 h. All further steps of the immunohistochemical staining procedure were carried out using a Ventana Benchmark XT. The slides were dewaxed and antigen retrieval was performed by applying heat for 1 hour. For antigen retrieval the Ventana buffer CC1 was used. The antibodies were used at a concentration of 1 μg/ml. For the detection of bound antibody the Ventana UltraView detection kit was used.

[13] = biological target: T12, HER2, full length, on cells (transfected HEK293, MCF7) (human, UniProt P04626 23-1255); assay: IHC on HEK293 cells transiently transfected with full length HER2
Experimental: as §3

[14] = biological target: T13, HER4, full length, on transfected HEK293 cells (human, UniProt Q15303 26-1308); assay: IHC on HEK293 cells transiently transfected with full length HER4
Experimental: as §3

[15] = biological target: T11, HER1, full length, on transfected …; assay: IHC on fixed transfected HEK293 cells
Experimental: as §3

[16] = biological target: T12, HER2, full length, on cells …; assay: IHC on fixed transfected HEK293 cells
Experimental: as §3

[17] = biological target: T13, HER4, full length, on transfected …; assay: IHC on fixed transfected HEK293 cells
Experimental: as §3

[18] = biological target: T2, human recombinant HER3 Extracellular …; assay: SPR Biacore T200, antibody captured, HER3-ECD as analyte, 37 C
[19] = biological target: T14, HER1 (EGFR) ECD peptide hairpin, overlapping immobilized 15-mer peptides (human, UniProt P00533 265-283, limits assumed); assay: CelluSpots array of overlapping 15-mer peptides
T14 construct: domain: peptide hairpin (β-hairpin); CelluSpots 15-mer library; cysteines replaced by serines; also called hairpin motive in EGFR
T14 peptide (looked up): PPLMLYNPTTYQMDVNPEG

[20] = biological target: T15, HER2 ECD peptide hairpin, overlapping immobilized 15-mer peptides (human, UniProt P04626 269-287, limits assumed); assay: CelluSpots array of overlapping 15-mer peptides
T15 construct: domain: peptide hairpin (β-hairpin); CelluSpots 15-mer library; cysteines replaced by serines; also called hairpin motive in the HER2 ECD
T15 peptide (looked up): PALVTYNTDTFESMPNPEG

[21] = biological target: T16, HER3 ECD-HRG complex (Heregulin-activated Her-3 ECD) (human, UniProt P21860 20-643); assay: SPR, 90 nM Heregulin*Her-3 ECD complex on captured antibody
T16 construct: receptor-ligand complex made by preincubating HER3 ECD with a five-fold molar excess of Heregulin; also called Heregulin/Her-3 ECD; Heregulin-complexed Her-3 ECD

Row | Binder | OD 405 nm [2] [OD] | OD 405 nm [3] [OD] | binding result [3] | OD 405 nm [4] [OD] | binding result [4] | OD 405 nm [5] [OD] | binding result [5] | OD 405 nm [6] [OD] | OD 405 nm [7] [OD] | OD 405 nm [8] [OD] | OD 405 nm [9] [OD] | OD 405 nm [10] [OD] | OD 405 nm [11] [OD] | further results
1 | B1 | – | – | – | – | – | – | – | – | – | – | – | – | – | binding result [1]: binds
2 | B2 | 3.1 | 0.025 | no binding | 0.03 | no binding | 0.03 | no binding | 0.022 | 0.021 | 1.4 | 1.53 | 1.4 | 1.62 | binding result [12]: no binding; binding result [13]: no binding; binding result [14]: no binding
3 | B3 | 3.06 | 0.022 | no binding | 0.023 | no binding | 0.051 | no binding | 0.022 | 0.022 | 1.31 | 1.53 | 1.66 | 1.37 | binding result [15]: no binding (tested: 1 µg/ml); binding result [16]: no binding (tested: 1 µg/ml); binding result [17]: no binding (tested: 1 µg/ml)
4 | B4 | – | – | – | – | – | – | – | – | – | – | – | – | – | Kd [18]: 0.3 nM
5 | B5 | – | – | – | – | – | – | – | – | – | – | – | – | – | binding result [19]: no binding (tested: 1 µg/mL); binding result [20]: no binding (tested: 1 µg/mL); t½ diss [21]: 18 min
